US10744088B2, “Method for preparing ophthalmic preparation containing thymosin beta-4” (G-TREEBNT CO., LTD., priority 2015, dated 2020)

Assays:
[1] = Impurity analysis (single maximum impurity, thymosin β4 sulfoxide) by HPLC and LC/MS; format: physicochemical; settings: after preparation; impurity identified as thymosin β4 sulfoxide
Method: The amounts of impurities in the ophthalmic preparations prepared in the above Examples and Comparative Examples were analyzed as following, and the results are shown in Table 3.
Specifically, thymosin β4 sulfoxide was synthesized following the methods in the paper (Eur. J. Biochem. 223, 345-350 (1994), Nature Medicine 5(12), 1424 (1999)). Thymosin β4 sulfoxide is a substance modified from thymosin β4 by oxidation, which causes a change in its pharmacological activity compared to thymosin β4.
The molecular weight of the synthesized thymosin β4 sulfoxide was identified by mass analysis (LC/MS) using the MALDI-TOF MS instrument. The analyzed molecular weight was 4,978.5, which was consistent with the value in the document of 4,980±2.
The ophthalmic preparations prepared in Example 1 and Comparative Examples 1 and 2 and the synthesized thymosin β4 sulfoxide were analyzed by HPLC and LC/MS under the same conditions.

[2] = Purity analysis of ophthalmic preparations by HPLC; format: physicochemical; settings: after preparation, HPLC UV 205 nm
Method: The purity changes of the ophthalmic preparations prepared in the above Examples and Comparative Examples were analyzed during the period from the initial time after preparation to 12 months later with a high performance liquid chromatography (HPLC), Agilent 1200 instrument under the conditions in Tables 1 and 2, and the results are shown in Table 3.

thymosin β4 acetate [Thymosin β4 (raw material)]
Single maximum impurity (%) [1]: Not detected
Purity (%) [2]: 99.3%
